Results: the nanobody polyreactivity screen of Harvey et al. (2022)

Assay: yeast display, Sf9 membrane polyspecificity reagent, FACS + sequencing; frameworks hold sequencing errors
In short: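 In a synthetic yeast display library (Saccharomyces cerevisiae BJ5465), nanobody expression was induced with galactose for 36–48 hours. FACS gates were set low and high (top ~1%) using anti-HA fluorescence for expression and streptavidin fluorescence for binding of the Sf9 membrane reagent. Each polyreactivity label is drawn from the gate of origin.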
In the case of “QVQLVESGGGLVQAGGSLRLSCAASGSTFRRYTMGWYRQAPGKERELLAAISSGGSTYYADSVKGRFTISRDNAKNTVYLQMNSLNPEDTAVYYCAAKNYPLTRYWRYDYSEYYYWGQATQVTVSS”, the “polyreactivity (PSR sort gate)” value is reported as “high polyreactivity”. For “QVQLVESGGGLVQAGGSLRLSCAASGSTFRRYVMGGYREAAGKERELVAAISGSSGSTYYADSVKGRFTISRDNAKNTVYLQMNSLKPEDTAVYYCAAVRATQGYRYGYWGQGTQVTVSS”, the “polyreactivity (PSR sort gate)” value was “high polyreactivity”. For “QVQLVESGGGLVQAGGSLRLSCAASGSTFRSYAMGWYRQAPGKERELVAAISSSGSRTYYADSVKGRFTISRDNAKNTVYLQMNSLKPEDTAVYYCAADYYYNTKLDYWGQGTQVTVSS”, the “polyreactivity (PSR sort gate)” value was “high polyreactivity”. With “QVQLVESGGGLVQAGGSLRLSCAASGSTFRSYAMGWYRQAPGKERELVAAISYSGDSTYYADSVKGRFTISRDNAKNTVYLQMNSLKPEDTAVYYCAALRDWDIQGEPWKRYGYWGQGTQVTVSS” the “polyreactivity (PSR sort gate)” value was “low polyreactivity”. For “QVQLVESGGGLVQAGGSLRLSCAASGSTFRSYAMGWYRQAPGKERELVAVISSGDSTYYADSVKGRFTISRDNAKNTVYLQMNSLKPEDTAVYYSAADSYVLGRWYGYWGQGTQVTVSS”, the “polyreactivity (PSR sort gate)” value was “low polyreactivity”. With “QVQLVESGGGLVQAGGSLRLSCAASGSTFRSYARGWYRQAPGKERELVAVISKRGGSTYYADSVKGRFTISRDNAKNTVYLQMNSLKPEDTAVYYCAADVYRYYAPNDYYWGQGTQVTVSS” the “polyreactivity (PSR sort gate)” value was “high polyreactivity”. For “QVQLVESGGGLVQAGGSLRLSCAASGSTFRSYGMGWYRQAPRKERELVAGISVSGGRTSYADSVKGRFTISRDNAKNTVYLQMNSLKPEDTAVYYCAARRSKVGYHRDYYWGQGTQVTVSS”, the “polyreactivity (PSR sort gate)” value was “high polyreactivity”. For “QVQLVESGGGLVQAGGSLRLSCAASGSTFRSYVMGWYRQAPGKERELGAGISYRGGTTYYADSVKGRFTISRDNAKNTVYLQMNSLKPEDTAVYNCAADSTPYVLSGNYDYWGQGTQVTVSS”, the “polyreactivity (PSR sort gate)” value was “low polyreactivity”. For “QVQLVESGGGLVQAGGSLRLSCAASGSTFRTYAMGWYRQAPGKERDLVASIDSTGSTNYADSVKGRFTISRDNAKNTVYLQMNSLKPEDTAVYYCAAETYSDPPFYAYDYWGQGTQVTVSS”, the “polyreactivity (PSR sort gate)” value was “low polyreactivity”. For “QVQLVESGGGLVQAGGSLRLSCAASGSTFRTYAMGWYRQAPGKERELVAAISFNGTRTYYADSVKGRFTISRDNAKNTVYLQMNSLKPEDTAVYYCAARGRGSFHQKGYYYWGQGTQVTVSS”, the “polyreactivity (PSR sort gate)” value was “high polyreactivity”. With “QVQLVESGGGLVQAGGSLRLSCAASGSTFRVNAMGWYRQAPGKERELVAAISYRGGSTYYADSVKGRFTISRDNAKNTVYLQMINLKPEDTAVYYCNADLKRRTYGPDSYYWGQGTQVTVSS” the “polyreactivity (PSR sort gate)” value was “high polyreactivity”. With “QVQLVESGGGLVQAGGSLRLSCAASGSTFRVNAMGWYRQEPGKEREFVDAITWSTGSTYYADSVKGRFTISRDYAMNTVYLQMNSLKPEDTAVYYCAAREQTYSQRGKKLYYFWGQGTQVTVST” the “polyreactivity (PSR sort gate)” value was “high polyreactivity”. In the case of “QVQLVESGGGLVQAGGSLRLSCAASGSTFRVNARGWYRQAPGKERELVAAISFSAGGTYYADSVKGRFTISRDNAKNTVYLQMNSLKPEDTAVYYCAADFYYYDYWGQCTQVTVSS”, the “polyreactivity (PSR sort gate)” value is reported as “low polyreactivity”. In the case of “QVQLVESGGGLVQAGGSLRLSCAASGSTFRVYAMGWYRQAPGKEREFVAAITGSDGSTYYADSVKGRFTISRDNAKNTVYLQMNSLKPEDTAVYYCAADYYLQNYETGYGYWGQGTQVTVSS”, the “polyreactivity (PSR sort gate)” value is reported as “low polyreactivity”. With “QVQLVESGGGLVQAGGSLRLSCAASGSTFRVYAMGWYRQAPGKERELVAGITQTSGRTYYADSVKGRFTISRDNAKNTVYLQMNSLKPEDTAVYYCARESYSSYFHYYYWGQGTQVTVSS” the “polyreactivity (PSR sort gate)” value was “high polyreactivity”. With “QVQLVESGGGLVQAGGSLRLSCAASGSTFRVYDMGWYRQAPGKERELVASISYSVGSTYYADSVKGRFTISRDNAKNTVYLQMNSLKPEDTAVYYCAARPSYQPSSLARYDYWGQGTQVTVSS” the “polyreactivity (PSR sort gate)” value was “low polyreactivity”. In the case of “QVQLVESGGGLVQAGGSLRLSCAASGSTFRWNAMGWYRQAPGKERELDAAINSGGSTNYADSVKGRFTISRDNAKNTVYLQMNSLKPEDTAVYYCATRYDVSYIKFDYWGQGTQVTVSS”, the “polyreactivity (PSR sort gate)” value is reported as “high polyreactivity”. In the case of “QVQLVESGGGLVQAGGSLRLSCAASGSTFRWYAMGWYRQAPGKERELVAAISRSGGNTYYADSVKGRFTISRDNAKNTVYLQMNSLKPEDTAVYYCAARKLYGSPEHGYWGQGTQVTVSS”, the “polyreactivity (PSR sort gate)” value is reported as “high polyreactivity”. For “QVQLVESGGGLVQAGGSLRLSCAASGSTFRWYAMGWYRQAPGKERELVASISGSGGSTYYADSVKGRFTISRDNAKNTVYLQMNSLKPEDTAVYYCNKRYFTYLGEHTVGYWGQGTQVTVSS”, the “polyreactivity (PSR sort gate)” value was “high polyreactivity”. With “QVQLVESGGGLVQAGGSLRLSCAASGSTFRWYGMGWYRQAPGKERELVAVITRGGSTYYADSVKGRFTISRDNAKNTVYLQMNSLKPEDTAVYYCARVRGPNNAFYLGSTYGYWGQGTQVTVSS” the “polyreactivity (PSR sort gate)” value was “high polyreactivity”. For “QVQLVESGGGLVQAGGSLRLSCAASGSTFRYNAKGWYRQAPGKERELVAAINRGGGTDYADSVKGRFTISRDNAKNTVYLQMNSLKPEDTAVYYCAKQFVSYNRWLAYGYWGQATQVTVSS”, the “polyreactivity (PSR sort gate)” value was “low polyreactivity”. For “QVQLVESGGGLVQAGGSLRLSCAASGSTFRYNAMGWYRPAPGKERELVAAITSGGGTNYADSVKGRFTISRDNAKNTVYLQMNSLKPEDTAVYYCAAPWGLGSELLKRDYWGQGTQVTVSS”, the “polyreactivity (PSR sort gate)” value was “low polyreactivity”. With “QVQLVESGGGLVQAGGSLRLSCAASGSTFRYNAMGWYRQAPGKERELVAAISSGSSTNYADSVKGRFTISRDNEKNTVYFQMNSLKPVDTAVYYCAAQPGYYDDFYYWGQGTQVTVSA” the “polyreactivity (PSR sort gate)” value was “low polyreactivity”. In the case of “QVQLVESGGGLVQAGGSLRLSCAASGSTFRYNAMGWYRQAPGKERELVAAITSGGGTNYADSVKGRFTISRDNAKNTVYLQMKSLKPEDTAVYYCAAPWGLGSELLKRDYWGQGTQVTVSS”, the “polyreactivity (PSR sort gate)” value is reported as “low polyreactivity”. With “QVQLVESGGGLVQAGGSLRLSCAASGSTFRYNAMGWYRQAPGKERELVAAITSTGDSTYYADSVKGRFTISRDNAKNTVYLQMNSLKPEDTAVYYCAARSYASPGWRYEYWGQGTQVTVSS” the “polyreactivity (PSR sort gate)” value was “low polyreactivity”. With “QVQLVESGGGLVQAGGSLRLSCAASGSTFRYNAMGWYRQAPGKERELVAGISYRGGTTYYADSVKGRFTISRDNAKNTVYLQMNSLKPEDTAVYYCAAGASSPGGWFYYWGQGTQVTVSS” the “polyreactivity (PSR sort gate)” value was “high polyreactivity”. With “QVQLVESGGGLVQAGGSLRLSCAASGSTFRYNAMGWYRQAPGKERELVAGITSSGGTYADSVKGRFTISRDNAKNTVSLQMNSLKPEDTAVYSCAAEYNWYDYWGQGTQVTVSS” the “polyreactivity (PSR sort gate)” value was “low polyreactivity”. In the case of “QVQLVESGGGLVQAGGSLRLSCAASGSTFRYNAMGWYRQAPGKVRELVAAIDKRGDSTYADSVKGRFTISRDNAKNTVYLQMNSLKPEDTAVYYCAADSDSKYNYGFLWDTYEYWGQGTQVTVSS”, the “polyreactivity (PSR sort gate)” value is reported as “low polyreactivity”. For “QVQLVESGGGLVQAGGSLRLSCAASGSTFRYNAMGWYRQAPGKVRQLVAAIDKRGDSTYADSVKGRFTISRDNAKNTVYLQMNSLKPEDTAVYYCAADSDSKYNYGFLWDTYEYWGQGTQVTVSS”, the “polyreactivity (PSR sort gate)” value was “low polyreactivity”. For “QVQLVESGGGLVQAGGSLRLSCAASGSTFRYNVMGWYRQAPGKERELVATISYSGGSTNYADSVKGRFTISRDNAKNTDYLQMNSLKPEDTAVYYCAARYLYPFYRYWWYDYWGQGTQVTVSS”, the “polyreactivity (PSR sort gate)” value was “high polyreactivity”. For “QVQLVESGGGLVQAGGSLRLSCAASGSTFRYYALGWYRQAPGKERELVAAINRSGGSTYYADSVKGRFTISRDNAKNTVDLQMNSLKQEETAVYYCAAPWARHYSNPDDYWGQGTQVTVSS”, the “polyreactivity (PSR sort gate)” value was “high polyreactivity”. In the case of “QVQLVESGGGLVQAGGSLRLSCAASGSTFRYYALGWYRQAPGKERELVAAISTSGGRTYYADSVKGRFTISRDNAKNTVYLQMNSLKPEDTAVYYCNARESRGYAYQTWKYYYWGQGTQVTVSS”, the “polyreactivity (PSR sort gate)” value is reported as “high polyreactivity”. With “QVQLVESGGGLVQAGGSLRLSCAASGSTFRYYAMGWYRPAPGKERELVAAINSSGGSTYYADSVKGRFTISRDNAKNTVYLQMNSLKPEDTAVYYCATVYAYTGWLTNPREYSRYDYWGQGTQVTVSS” the “polyreactivity (PSR sort gate)” value was “low polyreactivity”. In the case of “QVQLVESGGGLVQAGGSLRLSCAASGSTFRYYAMGWYRQAPGEEREFVASISSTGTSRYYADSVKGRFTISRDNAKNTVYLQMNSLKPEDTAVYYCAARYISYYGYNHWGQGTQVTVSS”, the “polyreactivity (PSR sort gate)” value is reported as “high polyreactivity”. In the case of “QVQLVESGGGLVQAGGSLRLSCAASGSTFRYYAMGWYRQAPGKERELVAAISGSGGSTYYADSVKGRFTISRDNAKNTVYFQMNSLKPEDTAVYYCNKVYARLVLSYDSWGQGTQVTVSS”, the “polyreactivity (PSR sort gate)” value is reported as “high polyreactivity”. For “QVQLVESGGGLVQAGGSLRLSCAASGSTFRYYAMGWYRQAPGKERELVAAISSSGGSTYYADSVKGRFTISRDNAKNTVYLQLNSLKPEDTAVYYCNRGVVYRTGRFDYWGQVTQVTVSS”, the “polyreactivity (PSR sort gate)” value was “high polyreactivity”. In the case of “QVQLVESGGGLVQAGGSLRLSCAASGSTFRYYAMGWYRQAPGKERELVAAITSSGGSTYYADSVKGRFTISRDNAKNTVYLQMNSLKPEDTAVYYCAVAVKNWVKLNYWGQGTQVTVSS”, the “polyreactivity (PSR sort gate)” value is reported as “high polyreactivity”. In the case of “QVQLVESGGGLVQAGGSLRLSCAASGSTFRYYAMGWYRQAPGKVRELVAAITSSGGSTYYADSVKGRFTISRDNEKNTVYLQMNSLKPEDTAVYYCNAVSSYREDDYWGQGTQVTVSS”, the “polyreactivity (PSR sort gate)” value is reported as “high polyreactivity”. For “QVQLVESGGGLVQAGGSLRLSCAASGSTFRYYAMGWYRQSPGKEREFVAAITKVGSRTSYADSVKGRFTISRDNAKNTVYLQMNSLKPEDTAVYYCATRDSPRTKNGYYYWGQGTKVTVSS”, the “polyreactivity (PSR sort gate)” value was “high polyreactivity”. For “QVQLVESGGGLVQAGGSLRLSCAASGSTFRYYGMGWYRQAPGKERELVATINRGGRTYYADSVKGRFTISRDNAKNTVYLQMNSLKPEDTAVYYCAADYYYYVACVHDDYWGQGTQVTGSS”, the “polyreactivity (PSR sort gate)” value was “low polyreactivity”. In the case of “QVQLVESGGGLVQAGGSLRLSCAASGSTFRYYVMGWSRQAPGKEMELVAGISYRGGTTYYADSVKGRFTISRDNAKITVYLQMNSMKPEDTAVYYCNAGYTLYHYYSWYAFGYWGQGTQGTVSS”, the “polyreactivity (PSR sort gate)” value is reported as “low polyreactivity”. In the case of “QVQLVESGGGLVQAGGSLRLSCAASGSTFRYYVMGWYRQAPGKERELVAAISRTGGRTYYADSVKGRFTISRDNAKNTVYLQMNSLKPEDTAVYYCAARNVTTKRYYYWGQGTQVTVSS”, the “polyreactivity (PSR sort gate)” value is reported as “high polyreactivity”. With “QVQLVESGGGLVQAGGSLRLSCAASGSTFRYYVMGWYRQAPGKERELVARITSAASTNYADSVKGRFTISRDNAKNTVYLQMNSLNPEDTAVYYCAARKYGSRYRLKYDYWGQGTQVTVSS” the “polyreactivity (PSR sort gate)” value was “high polyreactivity”.
